This experiment addresses T1, human BTN1A1 on cells (human, UniProt Q13410 27-526).
T1 construct: also called HEK293T cells overexpressing BTN1A1
T1 sequence: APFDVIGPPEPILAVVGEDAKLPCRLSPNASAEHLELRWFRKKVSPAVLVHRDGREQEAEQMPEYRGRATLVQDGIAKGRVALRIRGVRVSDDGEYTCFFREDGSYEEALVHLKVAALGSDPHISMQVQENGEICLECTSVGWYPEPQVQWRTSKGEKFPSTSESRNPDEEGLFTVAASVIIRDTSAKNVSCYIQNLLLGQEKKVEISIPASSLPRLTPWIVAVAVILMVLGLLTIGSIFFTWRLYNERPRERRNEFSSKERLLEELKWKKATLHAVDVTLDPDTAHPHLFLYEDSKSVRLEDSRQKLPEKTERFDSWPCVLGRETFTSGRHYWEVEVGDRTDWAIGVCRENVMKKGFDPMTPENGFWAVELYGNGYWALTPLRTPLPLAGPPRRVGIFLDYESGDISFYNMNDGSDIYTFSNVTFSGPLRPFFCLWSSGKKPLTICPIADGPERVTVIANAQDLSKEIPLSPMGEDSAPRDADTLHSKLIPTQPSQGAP
Kind of experiment: FACS, HEK293T cells overexpressing BTN1A1. As to the method:
To identify anti-BTN1A1-Fc MAbs that were specific for and which preferentially bound human BTN1A1-Fc antigen, different types of assays were performed. In a screening assay to detect preferential binding of MAbs to BTN1A1, antibody binding was determined based on the measurement of fluorescence intensity through FACS analysis (using cell membrane bound proteins). By way of example, the assay was performed using the HEK293T human embryonic kidney cell line. Illustratively, HEK293T cells overexpressing BTN1A1 were incubated with anti-BTN1A1 antibodies existing in hybridoma culture supernatant. After washing, secondary antibodies conjugated with FITC were added as detection agent. Fluorescence intensity (measured fluorescence intensity, MFI) was measured via FACS I flow cytometry analysis to assess the relative binding of the anti-BTN1A1 antibodies to membrane bound BTN1A1 WT on cells. […] Based on the binding analysis, sixty seven candidate MAb-producing hybridomas were selected, grown in ADCF medium, and their supernatant containing monoclonal antibody was concentrated and purified.
A general note: Flow cytometry measures light scatter and fluorescence of single cells or particles in a stream.

Results on three molecules are retold here after US20200131266A1 (STCUBE, published 2020).

Substitutions are numbered along the chain they refer to.

B1: STC2739 (antibody, V domains shown)
VH: QVQLKQSGPGLVQPSQSLSITCTVSGFSLTTHGVNWVRQSPGKGLEWLGVIWSGGSTDYNAAFISRLSISKDNSKSQVFFKMNSLQANDTAIYYCARPYYYGAMDYWGQGTSVTVSS
VL: QIVLTQSPSIMSASPGEKVTITCSASSSVSYIHWFQQKPGTSPKLWIYSTSNLASGVPARFSGSGSGTSYSLTISRMEAEDAATYYCQQRSIYPLTFGAGTKLELK
notes: mouse hybridoma monoclonal antibody raised against human BTN1A1-Fc, kappa light chain
With B1, the “FACS (MFI)” value came to 841 MFI.

B2: STC2602 (antibody, V domains shown)
VH: EVQLQQSGPELVKPGASVKISCKASGFSFIGYYIDWVKQSPGKSLEWIGYIYPSNGETSYHQKCKGKATLTVDKSSSTVNMQLNSLTSEDSAVYYCARYGNYDWFFDVWGAGTTVTVSS
VL: B1 VL with S9A, I32M, L45F, A59I, I92S, L95Y, A99G, L105I
notes: mouse hybridoma monoclonal antibody, kappa light chain
Regarding B2, the “FACS (MFI)” value came out at 69.5 MFI.

B3: STC2778 (antibody, V domains shown)
VH: QIQLVQSGPELKKPGETVKISCKASGYSFTNYGMNWVKQAPGKGLKWMGWINIYTGETTYGDDFKGRFAFSLETSASTAYLQINNLRSEDTATYFCVRGGTMIMYWGQGTTLTVSS
VL: DIVLTQSPATLSVTPGDSVSLSCRASQSISNNLHWHQQKSHESPRLLIKYASQSMSGIPSRFSGSGSGTDFTLSINSVETEDFGMYFCQQSDSWPLTFGAGTKLELK
notes: as for B1
In the case of B3, the “FACS (MFI)” value was found to be 2340 MFI.
